# Results taken from patent publication US8691772B2, “HSP60, HSP60 peptides and T cell vaccines for immunomodulation” (Yeda Research and Development Co. Ltd., priority 2005, dated 2014).
# B1: HSP60: recombinant human heat shock protein 60 (StressGen Biotechnologies) (protein)
# chain: AKDVKFGADARALMLQGVDLLADAVAVTMGPKGRTVIIEQSWGSPKVTKDGVTVAKSIDLKDKYKNIGAKLVQDVANNTNEEAGDGTTTATVLARSIAKEGFEKISKGANPVEIRRGVMLAVDAVIAELKKQSKPVTTPEEIAQVATISANGDKEIGNIISDAMKKVGRKGVITVKDGKTLNDELEIIEGMKFDRGYISPYFINTSKGQKCEFQDAYVLLSEKKISSIQSIVPALEIANAHRKPLVIIAEDVDGEALSTLVLNRLKVGLQVVAVKAPGFGDNRKNQLKDMAIATGGAVFGEEGLTLNLEDVQPHDLGKVGEVIVTKDDAMLLKGKGDKAQIEKRIQEIIEQLDVTTSEYEKEKLNERLAKLSDGVAVLKVGGTSDVEVNEKKDRVTDALNATRAAVEEGIVLGGGCALLRCIPALDSLTPANEDQKIGIEIIKRTLKIPAMTIAKNAGVEGSLIVEKIMQSSSEVGYDAMAGDFVNMVEKGIIDPTKVVRTALLDAAGVASLLTTAEVVVTEIPKEEKDPGMGAMGGMGGGMGGGMF
# Key:
# human T cells = test: In vivo homing assay of human T cells to bone marrow; design: species or system NOD/SCID mice; conditions: T cells pretreated (HSP60 1 μg/ml for 1 hr or mAb); 16 hr after injection
# Procedure: In vivo homing assay. Purified human T cells were incubated (1 hr, tissue culture conditions) with HSP60 (1 μg/ml) in tissue culture conditions. The cells were then washed with PBS, and, where indicated, further incubated (30 min, 4° C.) with mouse anti-human CXCR4 mAb (10 μg/3×10^6 cells), anti-human TLR2 or anti-TLR4 mAb (each at 20 μg/ml). The cells were then washed and injected (5×10^6 cells/0.5 ml per mouse) i.v. into the tails of irradiated (375 cGY from a ^60[Co] source), 8-week-old NOD/SCID mice, and the entrance of human T cells into the bone marrow of recipient mice was evaluated as previously described (Kollet et al., 2001). Each tested sample contained 1.5×10^6 cells.
# ERK, Pyk2, AKT, MLC = test: Western blotting of T-cell lysates (phosphorylation) and cell morphology; format: cell-based, human
# Procedure: Western blotting of T-cell lysates. T cells were incubated (24 hr, 37° C.) in starvation medium (RPMI medium without serum). Aliquots (5×10^6/sample) of the starved cells were preincubated (for various intervals) with different concentrations of HSP60 prior to exposure to SDF-1α (100 ng/ml, 10 min, 37° C., tissue culture conditions). These reactions were terminated by freezing the plates (−70° C., 10 min). The plates were thawed, and the cells solubilized by incubating (60 min, 4° C.) in lysis buffer [EDTA (0.5 mM), NaCL (150 mM), NaF (10 nM), Tris pH 7.5 (25 mM), Triton X-100 (1%), PMSF (200 pg/ml), and phosphatase inhibitor cocktail (1%)]. Lysates were cleared by centrifugation (30 min, 14×10^3 rpm, 4° C.), and the resulting supernatants analyzed for protein content. Sample buffer was added, the samples were boiled, and equal amounts of proteins were separated by 10% SDS-PAGE and transferred to nitrocellulose membranes. The membranes were blocked with TBST buffer [Tris pH 7.5 (20 mM), NaCl (135 mM) and Tween 20 (0.1%)] containing low-fat milk (5%), and probed with the following mAb in the same buffer: anti-phosphorylated (p) ERK (0.2 μg/ml), anti-total (t) ERK (diluted 1:20,000), anti-pPyk2 (1.5 μg/ml), anti-tPyk2 (0.2 μg/ml), anti-pAKT (diluted 1:1000), anti-tAKT (diluted 1:1000), anti-pMLC (diluted 1:250), and anti-tMLC (diluted 1:1000), anti-pSTAT3 (diluted 1:250), and anti-STAT3 (diluted 1:500). Immunoreactive protein bands were visualized using a horseradish peroxidase-conjugated goat anti-mouse Ab and the enhanced ECL system. Phosphorylation levels of the 3-5 independent experiments were estimated by densitometry, and an average percentage of phosphorylation±SD was calculated as OD of pERK/tERK, or pPyk2/tPyk2, or pAKT/tAKT, pMLC/tMLC, or pSTAT3/tSTAT3×100%.
# Cell morphology. T cells (3×10^6 cells/ml) were seeded in flat-bottom, 24-well plates in 500 μl of RPMI on coverslips coated with FN (25 μg/ml). Some T cells were pretreated (1 hr, 37° C., in a 7.5% CO2 humidified atmosphere) with anti-TLRs mAb (20 μg/ml), and then with HSP60 (1 hr). After which, SDF-1α (200 ng/ml) was added, and the cells allowed to adhere (30 min, 37° C., in a 7.5% CO2 humidified atmosphere). The cells were then fixed in 3.7% paraformaldehyde and permeabilized (5 min, room temperature) with 0.5% TritonX-100. For actin visualization, cells were stained with rhodamine-labeled phalloidin (diluted 1/100), and examined with a laser-scanning confocal microscope (LSM510, Zeiss).
# NF-κB = test: Nuclear translocation of NF-κB in T cells; format: cell-based, human
# Procedure: (§1) Western blot analysis of T-cell nuclear extracts. Purified T cells (5×10^6) were preincubated with different concentrations of HSP60 for the indicated periods of time (37° C. in a 7% CO2, humidified atmosphere). […] T cells were lysed in 10 mM HEPES, 1.5 mM MgCl2, 1 mM dithiothreitol (DTT), 1 mM PMSF, 0.5% Nonidet P-40. The lysates were incubated on ice for 10 min and centrifuged at 2000 rpm for 10 min at 4° C. The supernatants (cytoplasmic extracts) were transferred and the pellet (nuclei) was suspended in buffer containing 30 mM HEPES, 450 mM NaCl, 25% Glycerol, 0.5 mM EDTA, 6 mM DTT, 12 mM MgCl2 1 mM PMSF, 10 μg/ml leupeptin, 10 μg/ml pepstatin, 1% phosphatase inhibitor cocktail, and the suspension was incubated on ice for 30 min. The lysates were cleared by centrifugation (30 min, 14×10^3 rpm, 4° C.), and the resulting supernatants analyzed for protein content. For NFATp analysis nuclear extracts were prepared with a NE-PER Nuclear and Cytoplasmic Extraction reagent (Pierce, Rockford, Ill.) according to the manufacturer's protocol. Sample buffer was then added and, after boiling, the samples, containing equal amounts of proteins, were separated on 10% SDS-PAGE gel and transferred to nitrocellulose membranes. The membranes were blocked with TBST buffer containing low-fat milk (5%), Tris pH 7.5 (20 mM), NaCl (135 mM) and Tween 20 (0.1%), and probed with the following mAb in the same buffer: anti-NF-κb (diluted 1:1000), anti-total (t) ERK (diluted 1:20,000), anti-NFATp (diluted 1:500), anti T-bet (diluted 1:1000), anti-GATA-3 (diluted 1:1000), anti-Lamin B (diluted 1:1000). Immunoreactive protein bands were visualized using labeled secondary antibodies and the enhanced ECL system.
# NFATp = NFATp activation in T cells; format: cell-based, human
# Procedure: as §1
# [1] = human T cells, SDF-1α 100 ng/ml, 10 min
molecule,measurement,setting,value
B1,homing of human T cells to the bone marrow,human T cells,significantly (P<0.05) decreased their homing to the bone marrow
same,SDF-1α-induced polarized morphology,"ERK, Pyk2, AKT, MLC; FN-coated coverslips, HSP60 1 μg/ml",inhibits
same,SDF-1α-induced phosphorylation of MLC,"ERK, Pyk2, AKT, MLC; HSP60 1 hr then SDF-1α 100 ng/ml, 10 min",inhibits SDF-1α-induced phosphorylation of MLC
same,phosphorylation of MLC,"ERK, Pyk2, AKT, MLC; HSP60 1 hr, no SDF-1α",induces phosphorylation of MLC
same,SDF-1α-induced AKT phosphorylation,"ERK, Pyk2, AKT, MLC; [1]",inhibits
same,SDF-1α-induced ERK phosphorylation,"ERK, Pyk2, AKT, MLC; [1]",inhibits
same,SDF-1α-induced Pyk2 phosphorylation,"ERK, Pyk2, AKT, MLC; [1]",inhibits
same,time at which NF-κB inhibition was apparent,NF-κB; 1 ng/ml,60 min
same,time of peak NF-κB inhibition,NF-κB; 1 ng/ml,120 to 240 min
same,nuclear translocation of NF-κB without anti-CD3,NF-κB; HSP60 alone,did not affect the nuclear translocation of NF-κB
same,concentrations of maximal effects on NF-κB,NF-κB; P<0.01,1 ng/ml or 1 μg/ml
same,time at which NFATp inhibition was apparent,NFATp; 1 ng/ml,60 min
same,time of peak NFATp inhibition,NFATp; 1 ng/ml,120 to 240 min
same,anti-CD3-induced activation and de-phosphorylation of NFATp,NFATp; 1 ng/ml pre-treatment,significant down-regulation of their activation and de-phosphorylation of NFATp
same,NFATp phosphorylation in the absence of anti-CD3,NFATp; HSP60 alone,did not affect NFATp phosphorylation
